Data reported in patent publication US20190256588A1 (BEIJING HANMI PHARM, published 2019).

How the values were obtained:
[1] = biological target: recombinant monkey IL-17A (monkey); assay: ELISA, recombinant monkey IL-17A coated on the plate, HRP anti-human IgG, OD450nm
Method: Recombinant human IL-17A, monkey IL-17A, rat IL-17A and mouse IL-17A (all purchased from Sino Biological Inc.), were coated on a 96-well high-absorbing ELISA plate with a carbonate buffer solution with pH 9.6, the coating concentration was […], the coating amount was 100 μL per well, and the coating was carried out at 4° C. overnight. The plate was washed five times with PBST and blocked with 300 μL/well of PBST containing 1% BSA, and then incubated at 25° C. for 1 hour. The plate was washed five times with PBST. […] The plate was washed five times with PBST. Then, horseradish peroxidase-labeled anti-human IgG antibody (Chemicon, Catalog Number AP309P) 1:2000 diluted in PBST containing 1% BSA was added, 100 μL per well, incubated at 25° C. for 1 hour. The plate was washed five times with PBST. 100 μL/well of colorimetric substrate TMB was added and incubated at room temperature for 10 minutes. Color development was terminated by adding 100 μL/well of 1 M H₂SO₄. The absorbance at 450 nm was read on a microplate reader.

recombinant human IL-17F = biological target: T1, recombinant human IL-17F (human, UniProt Q96PD4 31-163); assay: ELISA, cytokine coated on plate at 1 µg/mL
T1 sequence (looked up): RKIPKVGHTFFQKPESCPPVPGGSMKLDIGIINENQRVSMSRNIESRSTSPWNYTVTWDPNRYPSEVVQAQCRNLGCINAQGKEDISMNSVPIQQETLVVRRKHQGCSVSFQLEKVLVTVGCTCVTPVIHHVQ
Method: (§1) Recombinant human IL-17A, IL-17B, IL-17C, IL-17D, IL-17E, IL-17F, IL-1, IL-2, IL-6, IL-8, IL-21, IL-22, IL-23, IFN-g and TNFα (purchased from Sino Biological Inc. or R&D systems) were coated on a 96-well high-absorbing ELISA plate with a carbonate buffer solution with pH 9.6, the coating concentration was 1 μg/mL, the coating amount was 100 μL per well, and the coating was carried ax 4° C. out overnight. The plate was washed five times with PBST and blocked with 300 μL/well of PBST containing 1% BSA and incubated at 25° C. for 1 hour. The plate was washed five times with PBST. […] The plate was washed five times with PBST. Then, horseradish peroxidase-labeled anti-human IgG antibody (Chemicon, Catalog Number AP309P) 1:2000 diluted in PBST containing 1% BSA was added, 100 μL was added to each well, incubated at 25° C. for 1 hour. The plate was washed five times with PBST. 100 μL/well of colorimetric substrate TMB was added and incubated at room temperature for 10 minutes. Color development was terminated by adding 100 μL/well of 1 M H₂SO₄. The absorbance at 450 nm was read on a microplate reader.
(§2) Recombinant human IL-17A, IL-17B, IL-17C, IL-17D, IL-17E, IL-17F, IL-1, IL-2, IL-6, IL-8, IL-21, IL-22, IL-23, IFN-g and TNFα (purchased from Sino Biological Inc. or R&D systems) were coated on a 96-well high-absorbing ELISA plate with a carbonate buffer solution with pH 9.6, the coating concentration was 1 μg/mL, the coating amount was 100 μL per well, and the coating was carried at 4° C. out overnight. Washed five times with PBST. Blocked with 300 μL/well of PBST containing 1% BSA and incubated at 25° C. for 1 hour. Washed five times with PBST.

recombinant human IL-21 = recombinant human IL-21 (human, UniProt Q9HBE4 32-162, limits assumed); assay: ELISA, cytokine coated on plate at 1 µg/mL
Method: as §1, §2

recombinant human IL-6 = recombinant human IL-6 (human, UniProt P05231 30-212); assay: ELISA, cytokine coated on plate at 1 µg/mL
Method: as §1, §2

recombinant human IL-17E = biological target: T2, recombinant human IL-17E (human, UniProt Q9H293 33-177); assay: ELISA, cytokine coated on plate at 1 µg/mL
T2 sequence (looked up): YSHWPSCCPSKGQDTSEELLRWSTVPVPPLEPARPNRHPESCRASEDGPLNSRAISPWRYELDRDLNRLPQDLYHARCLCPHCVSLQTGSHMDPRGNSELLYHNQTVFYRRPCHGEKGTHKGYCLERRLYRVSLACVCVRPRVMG
Method: as §1, §2

recombinant human IL-8 = recombinant human IL-8 (human, UniProt P10145 28-99, limits assumed); assay: ELISA, cytokine coated on plate at 1 µg/mL
Method: as §1, §2

recombinant human TNFα = recombinant human TNFα (human, UniProt P01375 77-233); assay: ELISA, cytokine coated on plate at 1 µg/mL
Method: as §1, §2

recombinant human IL-17B = biological target: T3, recombinant human IL-17B (human, UniProt Q9UHF5 21-180); assay: ELISA, cytokine coated on plate at 1 µg/mL
T3 sequence (looked up): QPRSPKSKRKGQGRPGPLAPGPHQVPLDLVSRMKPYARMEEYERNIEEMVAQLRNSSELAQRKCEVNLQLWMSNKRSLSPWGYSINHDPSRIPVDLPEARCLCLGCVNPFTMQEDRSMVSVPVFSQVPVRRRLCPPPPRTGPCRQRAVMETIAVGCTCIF
Method: as §1, §2

recombinant human IL-22 = biological target: T4, recombinant human IL-22 (human, UniProt Q9GZX6 34-179); assay: ELISA, cytokine coated on plate at 1 µg/mL
T4 sequence (looked up): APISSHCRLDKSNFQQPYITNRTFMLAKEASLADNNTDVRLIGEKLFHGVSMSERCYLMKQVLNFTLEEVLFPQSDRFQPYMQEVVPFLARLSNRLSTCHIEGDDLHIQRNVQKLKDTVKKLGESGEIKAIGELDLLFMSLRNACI
Method: as §1, §2

recombinant human IL-17C = biological target: T5, recombinant human IL-17C (human, UniProt Q9P0M4 19-197); assay: ELISA, cytokine coated on plate at 1 µg/mL
T5 sequence (looked up): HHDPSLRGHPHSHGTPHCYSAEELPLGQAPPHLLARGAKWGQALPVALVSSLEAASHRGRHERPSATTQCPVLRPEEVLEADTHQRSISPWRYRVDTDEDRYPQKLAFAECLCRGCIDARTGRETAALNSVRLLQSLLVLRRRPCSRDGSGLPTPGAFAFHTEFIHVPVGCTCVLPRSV
Method: as §1, §2

recombinant human IFN-g = biological target: T6, recombinant human IFN-g (human, UniProt P01579 24-166, limits assumed); assay: ELISA, cytokine coated on plate at 1 µg/mL
T6 sequence (looked up): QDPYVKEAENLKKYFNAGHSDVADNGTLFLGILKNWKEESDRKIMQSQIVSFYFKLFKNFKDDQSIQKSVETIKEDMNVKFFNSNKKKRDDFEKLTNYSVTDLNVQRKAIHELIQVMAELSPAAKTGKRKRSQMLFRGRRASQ
Method: as §1, §2

recombinant human TNFα, sequence (P01375 77-233 limits assumed): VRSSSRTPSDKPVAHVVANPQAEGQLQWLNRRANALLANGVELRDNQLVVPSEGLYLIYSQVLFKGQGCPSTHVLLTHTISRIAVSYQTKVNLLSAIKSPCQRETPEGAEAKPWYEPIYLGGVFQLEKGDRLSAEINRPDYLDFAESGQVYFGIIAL
recombinant human IL-21, sequence (Q9HBE4 32-162 limits assumed): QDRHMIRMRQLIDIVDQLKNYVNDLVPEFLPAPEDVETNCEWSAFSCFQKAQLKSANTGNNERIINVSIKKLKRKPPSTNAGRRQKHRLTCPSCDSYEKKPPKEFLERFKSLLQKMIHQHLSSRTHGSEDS
recombinant human IL-6, sequence (P05231 30-212 limits assumed): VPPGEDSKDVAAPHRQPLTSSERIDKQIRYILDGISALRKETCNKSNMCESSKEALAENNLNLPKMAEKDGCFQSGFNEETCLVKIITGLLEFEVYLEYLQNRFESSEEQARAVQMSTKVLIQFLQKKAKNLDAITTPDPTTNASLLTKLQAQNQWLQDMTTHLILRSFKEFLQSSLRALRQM
recombinant human IL-8, sequence (P10145 28-99 limits assumed): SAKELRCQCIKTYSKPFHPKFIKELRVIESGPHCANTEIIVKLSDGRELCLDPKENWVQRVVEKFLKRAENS

B1: anti-human IL-17A chimeric monoclonal antibody (antibody, human IgG1, kappa, V domains shown)
VH: DVQVQESGPGLVKPSQSLSLTCTVTGNSITSYYAWNWIRQFPGNKLEWMGYITYSGTTSYNPSLKSRISITRDTSKNQFFLQLNSVTTEDTATYYCAREEYDDIYAVDYWGQGTSVTVSS
VL: IIVMTQTPLSLPVSLGDQASISCRSSQSLVHSNGNTYLHWYLQKPGQSPKLLIYKVYNRFSGVPDRFSGSGSGTDFTLKISRVEAEDLGVYFCSQSTHFPTFGGGTKLEIKR
notes: expressed in 293F cells; also called Anti-human IL-17A Chimeric Antibody; chimeric anti-human IL-17A monoclonal antibody
EC50 [1]: 90 pM | binding result (recombinant human IL-17F): no binding | binding result (recombinant human IL-21): no binding | binding result (recombinant human IL-6): no binding | binding result (recombinant human IL-17E): no binding | binding result (recombinant human IL-8): no binding | binding result (recombinant human TNFα): no binding | binding result (recombinant human IL-17B): no binding | binding result (recombinant human IL-22): no binding | binding result (recombinant human IL-17C): no binding | binding result (recombinant human IFN-g): no binding
